Sequences and labels used below:
B1: W2.S1.1_R6F-1 (ssRNA)
RNA: GGGAGAGCAUUGCUCGUUAGUGGCGUUACAGCAGUUGCCACAAGGCACGUUUUAGCUAGUGACUCGGAUCAUCUAGG
modifications: 2'-OMe at all nucleotides
B2: W2.S1.1_R6P-1 (ssRNA)
RNA: GGGAGAGCAUUGCUCGUUAGUGGAGCCUAUGGUUGUUGUGUGCUCCUCGCGGGAGCUAGUGACUCGGAUCAUCUAGG
modifications: 2'-OMe at all nucleotides
B3: CT aptamer clone 7 (ssRNA)
RNA: GGGAGAGCAUUGCUCGUUAGUGUCGUCUUGACCUUUGCUGGUCAUGGUCGUAAAGCUAGUGACUCGGAUCAUCUAGG
B4: CT aptamer clone 5 (ssRNA)
RNA: GGGAGAGCAUUGCUCGUUAGUGUCGUCUCGCGAACGUUAAUCGCGUGGUCGUGAGCUAGUGACUCGGAUCAUCUAGG
B5: CT aptamer clone 11 (ssRNA)
RNA: GGGAGAGCAUUGCUCGUUAGUGUCGUCUCAUCGAAUGGUCGGUGUGGUCGUUAAGCUAGUGACUCGGAUCAUCUAGG
B6: CT aptamer clone 8 (ssRNA)
RNA: B5 RNA with C29A, A34G, A35U, G37U, G38U, U39C, G44U, A53G
B7: CT aptamer clone 9 (ssRNA)
RNA: GGGAGAGCAUUGCUCGUUAGUGUCGUCUCGGGAUUUUUCCCGUGGUCGUUCAUAGCUAGUGACUCGGAUCAUCUAGG
B8: CT aptamer clone 10 (ssRNA)
RNA: GGGAGAGCAUUGCUCGUUAGUGUCGUCUCGAGUUGUGAUUACUCGUGGUCGUAAGCUAGUGACUCGGAUCAUCUAGG
B9: CT aptamer clone 2 (ssRNA)
RNA: GGGAGAGCAUUGCUCGUUAGUGUCGUCUUGGUAAUUCCCUUUCUGGUCGUUUAAGCUAGUGACUCGGAUCAUCUAGG
B10: CT aptamer clone 3 (ssRNA)
RNA: GGGAGAGCAUUGCUCGUUAGUGUCGUCUUAAACUUCGUGUUUUUGGUCGUUGUAGCUAGUGACUCGGAUCAUCUAGG
B11: CT aptamer clone 4 (ssRNA)
RNA: B10 RNA with A30C, C33U, U34C, U35A, C36U, U38C, G39A, U42G, U53A
B12: CT aptamer clone 1 (ssRNA)
RNA: GGGAGAGCAUUGCUCGUUAGUGUCGUCUCGGAGUUUAUCUCCGUGGUCGUUGAAGCUAGUGACUCGGAUCAUCUAGG
B13: CT aptamer clone 6 (ssRNA)
RNA: B12 RNA with G31A, G33U, U34C, U35G, U36A, U38C, C39U, C41U, G52A

Residue numbers refer to the chain shown, from its start.

The target of the first series is KRAS (UniProt P01116 P01116:1-189). Briefly: plate binding compared to BSA; only central region printed.
B1: the binding result was “binds”.

Turning to B2, the binding result is recorded as “binds”.

A further series addresses Cholera toxin (holotoxin and/or B subunit) (UniProt P01555;P01555;P01556 P01555:19-212,P01555:213-258,P01556:22-124).
Assay: not given
On to B3, for which the binding result is on record as “binds”.

As to B4, the binding result is “binds”.

With B5, the binding result is recorded as “binds”.

In the case of B6, the binding result is recorded as “binds”.

On to B7, for which the binding result was “binds”.

Regarding B8, the binding result is reported as “binds”.

Regarding B9, the binding result is reported as “binds”.

With B10, the binding result is “binds”.

Take B11: the binding result is on record as “binds”.

In the case of B12, the binding result is given as “binds”.

Consider B13, for which the binding result was “binds”.

The values are drawn from patent US20220056425, “RNA PO[…] FOR […] OF MODIFIED RNA” (GUARDIAN THERAPEUTICS, LLC, published 2022).
